In the RNAGym collection of RNA variant scans (doi:10.1073/pnas.2313332121):

B1: TPR t1 (parent)
chain: GACCAAUCUGCCCUCAGAGCUCGAGAACAUCUUCGGAUGCAGAGGAGGCAGGCUUCGGUGGCGCGAUAGCGCCAACGUCCUCAACCUCCAAUGCAUCCCACCACAUGAUGAUGCCUGAAGAGCCUUGGUUUUUUG

Variants of: B1
Test: polymerase ribozyme fitness, log enrichment relative to wild type (log ratio); higher = more active; in vitro selection for triplet polymerase activity
Summary of the method: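 Fitness measures genotype enrichment against wild-type enrichment on a logarithmic scale, with inverse-variance-weighted averaging of replicates. The logarithm is base 2, and genotypes were kept only with ≥10 input reads and ≥1 read per output in Illumina sequencing. The sequenced libraries came from one triplicate in vitro selection round, including frozen incubation at −7 °C, of PCR-built, transcribed mutant libraries of each subunit of a heterodimeric triplet polymerase ribozyme.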

Variant | polymerase ribozyme fitness (log ratio)
GACCAAUCUGCCCUCAGAGCUCGAGAACAUCUUCGGAUGCAGAGGAGGCAGGCUUCGGUGGCGAGAUAGCGCCAACGACCUCAACCUCCAAUACAUCCCACCACAUGAUGAUGCCUGAAGAGCCUUGGUUUUUUG | -6.61
GACCAAUCUGCCCUCAGAGCUCGAGAACAUCUUCGGAUGCAGAGGAGGCAGGCUUCGGUGGCGUGAUAGCGCCAACGUCCUCCACCUCCAAUGCAUCCCACCACAUGAUGAUGCCUGAAGAGCCUUGGUUUUUUG | -0.261
GACCAAUCUGCCCUCAGAGCUCGAGAACAUCUUCGGAUGCAGAGGAGGCAGGCUUCGGUGGCGUGAUAGCGCCAACGUCCUCAAACUCCAAUGCAUCCCACCACAUGAUGAUGCCUGAAGAGCCUUGGUUUUUUG | -3.12
GACCAAUCUGCCCUCAGAGCUCGAGAACAUCUUCGGAUGCAGAGGAGGCAGGCUUCGGUGGCGAGAUAGCGCCAACGUCCUCAACCUCCAAUGCAUCCCACCACAUGAUGAGGCCUGAAGAGCCUUGGUUUUUUG | -6.64
GACCAAUCUGCCCUCAGAGCUCGAGAACAUCUUCGGAUGCAGAGGAGGCAGGCUUCGGUGGCGGGAUAGCGCCAACGUCCUCAACCUCCAAUGCAUCCCACCACAUGAUGAUGCCUGAAUAGCCUUGGUUUUUUG | -6.39
GACCAAUCUGCCCUCAGAGCUCGAGAACAUCUUCGGAUGCAGAGGAGGCAGGCUUCGGUGGCGUGAUAGCGCUAACGUCCUUAACCUCCAAUGCAUCCCACCACAUGAUGAUGCCUGAAGAGCCUUGGUUUUUUG | -0.57
GACCAAUCUGCCCUCAGAGCUCGAGAACAUCUUCGGAUGCAGAGGAGGCAGGCUUCGGUGGCGUGAUAGCGCCAUCGUCCUCAACCUCCAAUACAUCCCACCACAUGAUGAUGCCUGAAGAGCCUUGGUUUUUUG | -0.503
GACCAAUCUGCCCUCAGAGCUCGAGAACAUCUUCGGAUGCAGAGGAGGCAGGCUUCGGUGGCGUGAUAGCGCCAACGUCCUCAACCUCCAAUGCAUCCCACCACAUGAUGAUGCCUGAAGAGCUUUGGUGUUUUG | 0.174
GACCAAUCUGCCCUCAGAGCUCGAGAACAUCUUCGGAUGCAGAGGAGGCAGGCUUCGGUGGCGGGAUAGCGCCAACGUCCUCAACCUCCAAUGCAUCCCACCACAUGAUGAGGCCUGAAGAGCCUUGGUUUUUUG | -6.14
GACCAAUCUGCCCUCAGAGCUCGAGAACAUCUUCGGAUGCAGAGGAGGCAGGCUUCGGUGGCGUGAUAGCGCCAUCGUCCUCAACCUCCAAUGCAUCCCACCACAUGAUGAUGCCGGAAGAACGUUGGUUUUUUG | 0.737
GACCAAUCUGCCCUCAGAGCUCGAGAACAUCUUCGGAUGCAGAGGAGGCAGGCUUCGGUGGCGUGAUAGCGCCAACGUCCUCACCCUCCAAUGGAUCCCACCACAUGAUGAUGCCUGAAGAGCCUUGGUUUUUUG | -1.23
GACCAAUCUGCCCUCAGAGCUCGAGAACAUCUUCGGAUGCAGAGGAGGCAGGCUUCGGUGGCGAGAUAGCGCCAACGUCCUCAACCUCCAAUGCAUCCCACCACAUGAUGAGGCCUGAAGAACCUUGGUUUUUUG | -7.31
GACCAAUCUGCCCUCAGAGCUCGAGAACAUCUUCGGAUGCAGAGGAGGCAGGCUUCGGUGGCGUGAUAGCGCCAACGUCCUCAACCUCCAAUGCAUCUCACCACAUGAUGAUGCCUGAAUAGCCUUGGUUUUUUG | -0.972
GACCAAUCUGCCCUCAGAGCUCGAGAACAUCUUCGGAUGCAGAGGAGGCAGGCUUCGGUGGCGAGAUAGCGCCAACGUCCUCAACCUCCAAUGCAGCCCACCACAUGAUGAUGCCUGAAGAGUCUUGGUUUUUUG | -6.2
GACCAAUCUGCCCUCAGAGCUCGAGAACAUCUUCGGAUGCAGAGGAGGCAGGCUUCGGUGGCGUGAUAGCGCCAAGGUCCUCAACCUCCAAUGCAUCCCACCACAUGAUGAUGCCUGAAGAGCCUUGGUUUUUUG | -3.51
GACCAAUCUGCCCUCAGAGCUCGAGAACAUCUUCGGAUGCAGAGGAGGCAGGCUUCGGUGGCGGGAUAGCGCCAACGUCCUCAACCUCCAAUGCAUCCCACCACAUGAUGAUGCCUGAAGAGCAUUGGUUUUUUG | -4.25
GACCAAUCUGCCCUCAGAGCUCGAGAACAUCUUCGGAUGCAGAGGAGGCAGGCUUCGGUGGCGUGAUAGCGCCAACGUCCUCAACCUCCAAUGCAUCCCAACACAUGAUGAUGCCUGAAGAGCCUUGGUUUUUUG | -1.22
GACCAAUCUGCCCUCAGAGCUCGAGAACAUCUUCGGAUGCAGAGGAGGCAGGCUUCGGUGGCGUGAUAGCGCCAACGUCCUCAACAUCCAAUGCAUCCCACCACAUGAUGAUGCCUGAAGAGCCUUGGAUUUUUG | -1.99
GACCAAUCUGCCCUCAGAGCUCGAGAACAUCUUCGGAUGCAGAGGAGGCAGGCUUCGGUGGCGUGAUAGCGCCAACGUCCUCAACCUCCAAUGCAUCCCACCACAUGAUGAUGCCUGAAGAGCUUUGGUUUUUUG | 0.756
GACCAAUCUGCCCUCAGAGCUCGAGAACAUCUUCGGAUGCAGAGGAGGCAGGCUUCGGUGGCGUGAUAGCGCCAACGUCCUCAACCUCCAAUGCAUCUCACCACAUGAUGAUGCCUGAAGAGCCUUGGUUUUUUG | -0.89
GACCAAUCUGCCCUCAGAGCUCGAGAACAUCUUCGGAUGCAGAGGAGGCAGGCUUCGGUGGCGUGAUAGCGCCCACGUCCUCAACCUCCCAUGCAUCCCAGCACAUGAUGAUGCCUGAAGAGCCUUGGUUUUUUG | -4.26

Variant | polymerase ribozyme fitness (log ratio)
GACCAAUCUGCCCUCAGAGCUCGAGAACAUCUUCGGAUGCAGAGGAGGCAGGCUUCGGUGGCGGGAUAGCGCCAACGUCCUCAACCUCCAAUGCAUCCCACCACAUGAUGAUGCCUGAAGCGCCUUGGUUUUUUG | -5.13
GACCAAUCUGCCCUCAGAGCUCGAGAACAUCUUCGGAUGCAGAGGAGGCAGGCUUCGGUGGCGUGAUAGCGCCAACGUCCUCCACCUCCAAUGCAUCCCCGCACAUGAUGAUGCCUGAAGAGCCUUGGGUUUUUG | -3.82
GACCAAUCUGCCCUCAGAGCUCGAGAACAUCUUCGGAUGCAGAGGAGGCAGGCUUCGGUGGCGUGAUAGCGCCAACGUCCUCAACCUCCAAUGCAUCCCACCACAUGAUGAUGCCUGAAUAGGCUUGGUUUUUUG | 1.13
GACCAAUCUGCCCUCAGAGCUCGAGAACAUCUUCGGAUGCAGAGGAGGCAGGCUUCGGUGGCGGGAUAGCGCCAACGUCCUCAACCUCCAAUGCAUCCCACCACAUGAUGAUGACUGAAGAGCCUUGGUUUUUUG | -6.24
GACCAAUCUGCCCUCAGAGCUCGAGAACAUCUUCGGAUGCAGAGGAGGCAGGCUUCGGUGGCGGGAUAGCGCCAACGUGCUCAACCUCCAAUGCAUCCCACCACAUGAUGAUGCCUGAAAAGCCUUGGUUUUUUC | -5.74
GACCAAUCUGCCCUCAGAGCUCGAGAACAUCUUCGGAUGCAGAGGAGGCAGGCUUCGGUGGCGGGAUAGCGCCAACGUCCUCAACCUCCAAUGCAUCCCACCACAAGAUGAUGCCUGAAGAGCCUUGGUUUUUUG | -5.51
GACCAAUCUGCCCUCAGAGCUCGAGAACAUCUUCGGAUGCAGAGGAGGCAGGCUUCGGUGGCGUGAUAGCGCCAACGUCCUCAACCUACAAUGCAGCCCACCACAUGACGAUGCCUGAAGGGCCUUGGUUUUUUG | -6.55
GACCAAUCUGCCCUCAGAGCUCGAGAACAUCUUCGGAUGCAGAGGAGGCAGGCUUCGGUGGCGUGAUAGCGCCAACGUCCUCAACAUCCAAUGCAUCCCACCACAUGAUGAUGCCUGAAGAGCCUUGGUUUUUUG | -1.42
GACCAAUCUGCCCUCAGAGCUCGAGAACAUCUUCGGAUGCAGAGGAGGCAGGCUUCGGUGGCGUGAUAGCGCCCUCGUCCUCAACCUCCAAUGCAUCCCACCACAUGAUAAUGCCUGAAGAGCCUUGGUUUUUUG | -1.89
GACCAAUCUGCCCUCAGAGCUCGAGAACAUCUUCGGAUGCAGAGGAGGCAGGCUUCGGUGGCGUGGUAGCGCCAACGUCCUCAACCUCCAAUGCAUCCCACCACAUGAUGAUGCCUGAAGAGCCUUGGUUUUUUG | -3.44
GACCAAUCUGCCCUCAGAGCUCGAGAACAUCUUCGGAUGCAGAGGAGGCAGGCUUCGGUGGCGUGAUAGCGCCAACGUCCUCAACCUCCAAUGCAUCCCACCACAUGAUGAUGCUUGAAGAGCCUUGGUUUUUUG | -0.234
GACCAAUCUGCCCUCAGAGCUCGAGAACAUCUUCGGAUGCAGAGGAGGCAGGCUUCGGUGGCGAGAUAGCGCCAACGUCCUCAACCUCCAAAGCAUCUCACCACAUGAUCAUGACUGAAGAGCCUUGGUUUUAUG | -6.59
GACCAAUCUGCCCUCAGAGCUCGAGAACAUCUUCGGAUGCAGAGGAGGCAGGCUUCGGUGGCGUGUUAGCGUCAACGUCCUCAACCUCCAAUGCAUACCACCACAUGAUGAUGCCUGAAGAGGCUUGGUUUUUUG | -4.97
GACCAAUCUGCCCUCAGAGCUCGAGAACAUCUUCGGAUGCAGAGGAGGCAGGCUUCGGUGGCGUGAUAGCGCCAACGUCCUCAACCUCCAAUGCAUCCCACCACAUGAUGAUGCCUGAAGAGCCUUGAUUUUUUG | -1.84
GACCAAUCUGCCCUCAGAGCUCGAGAACAUCUUCGGAUGCAGAGGAGGCAGGCUUCGGUGGCGUGAUAGCGCCAACGUCCUCAACCUCCAAUGCAUCCCACCACAUGAUGAUGCCUCAAGAGCCUUGGUUUUUUG | -2.58
GACCAAUCUGCCCUCAGAGCUCGAGAACAUCUUCGGAUGCAGAGGAGGCAGGCUUCGGUGGCGUGAUAGCGCCAACGUCCUCAACCUCCAAUGCAUCCCACCACAUGAUGAUGCCUGAAUAGCCUUGGUUUUUUG | 0.23
GACCAAUCUGCCCUCAGAGCUCGAGAACAUCUUCGGAUGCAGAGGAGGCAGGCUUCGGUGGCGUGAUAGCGCCAACGUCCUCAACCUCCAAUGCAUCCCACCACAUGAUGAUGCCUGAAAAGCCUUGGUUUUUUG | 0.482
GACCAAUCUGCCCUCAGAGCUCGAGAACAUCUUCGGAUGCAGAGGAGGCAGGCUUCGGUGGCGGGAUAGCGCCAACAUCCUCAACCUCCAAUGCAUCCCACCACAUGAUGGUGCCCGAAGAGCCUUGGUUUUUUG | -6.18
GACCAAUCUGCCCUCAGAGCUCGAGAACAUCUUCGGAUGCAGAGGAGGCAGGCUUCGGUGGCGUGAUAGCGCCAACGUCCUCAACCUGCAAUGCAUCCCACCACAUGAUGAUGCCUGAAGAGCCUUGGUUUUUUG | -1.13
GACCAAUCUGCCCUCAGAGCUCGAGAACAUCUUCGGAUGCAGAGGAGGCAGGCUUCGGUGGCGUGAUAGCGCCAACGUCCUCAACCUCCAAUGCAUCCCACCACAUGAUUAUGCCUGAAGAGCCUUGGUUUUUUG | -0.774
GACCAAUCUGCCCUCAGAGCUCGAGAACAUCUUCGGAUGCAGAGGAGGCAGGCUUCGGUGGCGUGAUAGCGCCAACGUCCUCAACCUCCAAUGCAUCCCACCACAUGAUGAUGCCUGAAGCGCCUUGGUUUUUUG | 1.93
